Experimental data: PMC3761943 (Cell, 2013)

Legend:
SEC = target: the molecule itself; experiment: SEC
[1] = target: T1, kinesin-4ΔN (human kinesin-4, aa 733-1232) (human, UniProt O95239 733-1232); experiment: pull-down
T1 sequence (looked up): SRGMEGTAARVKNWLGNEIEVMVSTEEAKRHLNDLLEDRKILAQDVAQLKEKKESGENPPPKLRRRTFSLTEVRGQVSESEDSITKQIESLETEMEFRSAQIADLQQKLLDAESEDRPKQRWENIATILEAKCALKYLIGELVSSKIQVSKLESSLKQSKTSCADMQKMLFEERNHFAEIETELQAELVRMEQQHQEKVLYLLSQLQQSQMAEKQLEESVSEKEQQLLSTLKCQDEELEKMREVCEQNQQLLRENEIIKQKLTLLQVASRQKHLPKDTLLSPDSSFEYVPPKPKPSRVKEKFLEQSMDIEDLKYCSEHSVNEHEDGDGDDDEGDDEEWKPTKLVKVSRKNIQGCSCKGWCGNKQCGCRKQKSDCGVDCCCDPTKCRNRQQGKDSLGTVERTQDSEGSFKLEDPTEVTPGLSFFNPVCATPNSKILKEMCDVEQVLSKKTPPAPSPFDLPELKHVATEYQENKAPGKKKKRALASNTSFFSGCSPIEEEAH

B1: PRC1ΔN1SΔC (human PRC1, aa 19-486) (domain or fragment, UniProt O43663 19-486, looked up)
chain: LNHLREIWELIGIPEDQRLQRTEVVKKHIKELLDMMIAEEESLKERLIKSISVCQKELNTLCSELHVEPFQEEGETTILQLEKDLRTQVELMRKQKKERKQELKLLQEQDQELCEILCMPHYDIDSASVPSLEELNQFRQHVTTLRETKASRREEFVSIKRQIILCMEALDHTPDTSFERDVVCEDEDAFCLSLENIATLQKLLRQLEMQKSQNEAVCEGLRTQIRELWDRLQIPEEEREAVATIMSGSKAKVRKALQLEVDRLEELKMQNMKKVIEAIRVELVQYWDQCFYSQEQRQAFAPFCAEDYTESLLQLHDAEIVRLKNYYEVHKELFEGVQKWEETWRLFLEFERKASDPNRFTNRGGNLLKEEKQRAKLQKMLPKLEEELKARIELWEQEHSKAFMVNGQKFMEYVAEQWEMHRLEKERAKQERQLKNKKQTETEMLYGSAPRTPSKRRGLAPNTPGKAR
stoichiometry N (SEC): 2 | Kd [1]: 210 ± 10 nM
